Reference: patent US20070086956A1, “Method for accelerating the rate of mucociliary clearance” (BAYER AKTIENGESELLSCHAFT, priority 1998, published 2007)

Key:
[1] = Stability to degradation on incubation; format: physicochemical; conditions: 72-hours incubation at ambient temperature or at 37° C., neutral pH
[2] = tested on: human bronchial epithelial cell (HBE); experiment: Short circuit current (Isc) in cultured human bronchial epithelial (HBE) cells, Ussing chamber; format: cell-based; conditions: for sodium current: over a 90 minute period, FIG. 17
Method: Tertiary HBE cell monolayer grown to confluence were mounted in modified Ussing chambers, immersed in Krebs buffer (KBR) solution and bubbled with 95% O2/5% CO2 warmed to 37 C.
Cells were left to equilibrate for 20 minutes before calibrating for background noise and fluid resistance. Transepithelial potential difference was then clamped to 0 mV using a WPI EVC 4000 voltage clamp. Ag/AgCl electrodes were used to monitor Isc. […] Once a response to amiloride was seen, it was washed out with KBR solution. […] 90 minutes following agent treatment, amiloride (10 uM) was added. Once the current was stable forskolin (10 uM) and then bumetanide (100 uM) was added.
Tertiary HBE cell monolayers grown to confluence were mounted in modified Ussing chambers, immersed in Krebs buffer (KBR) solution and bubbled with 95% O2/5% CO2 warmed to 37 C.
Cells were left to equilibrate for 20 minutes before calibrating for background noise and fluid resistance. Transepithelial potential difference was then clamped to 0 mV using a WPI EVC 4000 voltage clamp. Ag/AgCI electrodes were used to monitor Isc. […] Once a response to amiloride was seen, it was washed out with KBR solution. […] 90 minutes following agent treatment, amiloride (10 uM) was added.

[3] = tested on: human CF bronchial epithelial cells; experiment: Short circuit current (Isc) in cultured human cystic fibrosis bronchial epithelial cells; format: cell-based
Method: HBE cells were isolated from CF patient lung transplant tissue and grown in collagen coated flasks for one week. The cells were then passaged and seeded onto collagen coated Costar Transwell filters (0.33 cm2) and grown in DMEM/F12 media supplemented with 2% Ultroser G. Cells were grown at an air liquid interface and used 2 to 4 weeks after seeding:
Cells on the Transwell filters were mounted in modified Costar Ussing chambers and studied under Isc conditions. […] Isc was recorded for 100 minutes and then the apical bath fluid was exchanged with fresh buffer. Trypsin (100 BAEE units/mL) was added to the apical side and Isc recorded for 10 minutes. Amiloride (10 uM) was then added to the apical side and Isc was recorded for a further 10 minutes.
HBE cells were isolated from CF patient lung transplant tissue and grown in collagen coated flasks for one week. The cells were then passaged and seeded onto collagen coated Costar Transwell filters (0.33 cm^2) and grown in DMEM/F12 media supplemented with 2% Ultroser G. Cells were grown at an air liquid interface and used 2 to 4 weeks after seeding.
Cells on the Transwell filters were mounted in modified Costar Ussing chambers and studied under Isc conditions. […] Isc was recorded for 90 minutes and then amiloride (10 uM) was added and Isc was recorded for a further 10 minutes. The apical bath fluid was then exchanged with fresh buffer, and Isc was recorded for a further 15 minutes. Trypsin (1 uM) was added to the apical side and Isc recorded for 15 minutes. Amiloride (10 uM) was then added to the apical side and Isc was recorded for a further 10 minutes.

guinea pig trachea = experiment: Tracheal potential difference in guinea pigs pretreated with LPS; format: in vivo; conditions: 50 ug/mL topical instillation; guinea pigs pre-exposed to LPS; FIG. 25(b)
Method: Polymorphonuclear (PMN) leukocyte (neutrophil) dominated airway inflammation is often a feature of CF lung disease. In the guinea pig, exposure to an aerosol of E. coli lipopolysaccharide (LPS) induces a marked PMN influx in the bronchoalveolar Iavage fluid 24 hours post challenge. The aim of this study was to investigate the effect of Bikunin (1-170) described in Example 17 on tracheal potential difference in guinea pigs pre-exposed to an aerosol of LPS. Agents were delivered into the cephalad trachea by topical instillation. TPD was monitored for 60 minutes, 23 hours after exposure to LPS.
Bikunin (1-170) was formulated in Hank's Balanced salt solution (HBSS). Amiloride was obtained from Sigma Chemicals and formulated in HBSS. Vehicle control was HBSS. Hypnorm (Fentanyl citrate 0.315 mg/mL and Fluanisone 10 mg/mL) was obtained from Janssen Animal Health and Hypnovel (Midazolam 5 mg.mL) was obtained from Roche. […]
23.4 hours following LPS treatment, guinea pigs were anaesthetised with Hypnorm and Hypnovel and immobilised in a supine position. […] Rectal temperature was monitored with a thermistor probe.
20 minutes following induction of anaesthesia, Bikunin (50 ug/mL) or amiloride (100 uM) was topically instilled into the cephalad trachea. The tracheal agar electrode was then inserted into the cephalad trachea and tracheal potential difference was measured for 60 minutes. […]

sheep airways = experiment: Tracheal mucus velocity in the sheep; format: in vivo
Method: The aim of this study was to investigate the effect of the Kunitz family serine protease inhibitor Bikunin (1-170) described in Example 17 on sheep trachcal mucus velocity over 8 hours after treatment. This agent was delivered by nebulised aerosol administration to the airways. The procedure used in this example is described in O'Riordan et al., J. Applied Physiol. 85(3), 1086-1091, 1998.
Adult ewes were restrained in an upright position, with their heads immobilized, in a specialized body harness. They were nasally intubated with an endotracheal tube, with the cuff placed just below the vocal cords. The inspired air was warmed and humidified. To minimize possible impairment of TMV caused by inflated cuffs, the endotracheal tube cuff remained deflated throughout the study except for the period of aerosol administration.
To measure TMV 5 to 10 radiopaque Teflon particles (approximately 1 mm in diameter, 0.8 mm thick, and weighing 1.5 to 2 mg) were insufflated into the trachea via a catheter placed within the endotracheal tube. The movement of the Teflon particles was then measured over a 1 minute period. The procedure used in this example is described in Russi et al., J. Applied Physiol. 59(5), 1416-1422, 1985. A collar containing radiopaque markers of known length was applied to the exterior of the animals and used as a standard to convert distance traversed by the particles on the video screen to actual distance traveled. TMV was calculated from the average distance in a cephalad direction traveled per minute for 5 to 10 Teflon particles. Baseline TMV was measured immediately prior to administration of aerosol.
Test substances; PBS, 1 mg/mL Bikunin in PBS, or 3 mg/mL Bikunin in PBS; were delivered to the sheep airways as an aerosol (3 mL) generated using a Raindrop jet nebuliser operated at a flow rate that produced droplets of mass median aerodynamic diameter of 3.6 um. […]

B1: CHO Bikunin (1-170): Glycosylated placental bikunin (1-170), SEQ ID NO: 52, expressed in Chinese hamster ovary cells (Example 17) (protein, listed as Homo sapiens)
chain: ADRERSIHDFCLVSKVVGRCRASMPRWWYNVTDGSCQLFVYGGCDGNSNNYLTKEECLKKCATVTENATGDLATSRNAADSSVPSAPRRQDSEDHSSDMFNYEEYCTANAVTGPCRASFPRWYFDVERNSCNNFIYGGCRGNKNSYRSEEACMLRCFRQQENPPLPLGSK
modifications: glycosylated, CHO-expressed
stability to degradation [1]: stable to degradation
Forskolin induced cAMP-mediated chloride secretion and monolayer resistance ([2]; 70 nM): unaffected
sodium current ([2]; 70 nM): decreases sodium current
sodium current ([2]; 70 nM, listed as Bukinin): inhibited sodium current
inhibition of Na+ Isc ([2]; 5 ug.ml−1, normal HBE cells, n=6, further study): 84%
sodium short circuit current ([2]; 5 ug/mL, FIG. 20): decrease sodium short circuit current
Isc ([3]; 1 ug/mL): inhibited
Isc ([3]; 10 ug/mL in PBS, over a 90 minute period, FIG. 28(a)): inhibited Isc
Isc ([3]; 10 ug/mL in PBS, over a 90 minute period, FIG. 28(a), listed as CHO expressed Bikunin (1-170)): decreases sodium current
Isc ([3]; 1, 5, and 10 ug/mL, at 90 minutes after apical application, FIG. 28(b)): decreases sodium current
Isc ([3]; 1, 5, and 10 ug/mL, at 90 minutes after apical application, FIG. 28(b), listed as bikunin (1-170)): inhibited Isc
tracheal potential difference (guinea pig trachea): significantly inhibited potential difference
TMV (sheep airways; 3 mg aerosol (3 mL of 1 mg/mL), any time point versus vehicle): no significant differences
TMV (sheep airways; 9 mg aerosol (3 mL of 3 mg/mL), at 0, 0.5, 3, 4, 5, 6, 7, and 8 hours versus PBS vehicle, FIG. 22): significantly increased TMV
TMV (sheep airways; 9 mg aerosol, at 24 hours): returned to baseline rates
